Article PMC2705653 (Molecular cell, 2009)
Positions count from the first letter of the chain named.

B1: H3K9me3 peptide (fluorescence polarization) (peptide)
chain: ARTKQTARKSTGGKAY
modifications: trimethyl-lysine at 9
B2: fluorescein labeled H3K9me2 peptide (peptide)
chain: ARTKQTARKSTGGKAY
modifications: dimethyl-lysine at 9; fluorescein (position not given)
B3: Chp1 chromodomain, wild type (for binding studies) (domain or fragment, S. pombe, UniProt Q10103 9-76, looked up)
chain: DIDSNEGETDADVYEVEDILADRVNKNGINEYYIKWAGYDWYDNTWEPEQNLFGAEKVLKKWKKRKKL
B4: H3K9me3 peptide (crystallization) (peptide)
peptide: ARTKQTARKSTGGKAY
modifications: trimethyl-lysine at 9

Key:
[1] = molecular target: T1, Chp1 chromodomain E23V,V24M (S. pombe, UniProt Q10103 9-76, E23V | V24M); assay: fluorescence polarisation
T1 sequence (looked up): B3 chain with E15V, V16M

[2] = molecular target: Clr4 chromodomain (residues 1-70) (S. pombe, UniProt O60016 1-70); assay: fluorescence polarisation
Chain of Clr4 chromodomain (residues 1-70) (O60016 1-70): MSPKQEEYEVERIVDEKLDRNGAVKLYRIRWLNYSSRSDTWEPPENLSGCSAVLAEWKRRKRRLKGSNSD

[3] = molecular target: T2, Swi6 V82E (S. pombe, UniProt P40381 1-328, V82E); assay: fluorescence polarisation
T2 sequence (looked up): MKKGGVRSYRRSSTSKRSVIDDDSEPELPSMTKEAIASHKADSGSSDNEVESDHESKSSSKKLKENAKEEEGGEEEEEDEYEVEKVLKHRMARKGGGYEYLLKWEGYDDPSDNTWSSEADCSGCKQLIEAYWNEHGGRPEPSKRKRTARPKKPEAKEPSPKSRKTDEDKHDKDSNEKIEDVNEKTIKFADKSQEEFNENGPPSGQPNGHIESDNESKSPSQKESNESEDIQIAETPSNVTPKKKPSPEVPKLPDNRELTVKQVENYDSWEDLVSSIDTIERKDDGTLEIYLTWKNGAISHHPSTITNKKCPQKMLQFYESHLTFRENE

[4] = molecular target: T3, Swi6, full length, wild type (S. pombe, UniProt P40381 1-328); assay: fluorescence polarisation
T3 sequence (looked up): T2 sequence (looked up) with E82V

[5] = molecular target: T4, Swi6 E80V V82E (S. pombe, UniProt P40381 1-328, E80V | V82E); assay: fluorescence polarisation
T4 sequence (looked up): T2 sequence (looked up) with E80V

[6] = molecular target: T5, H3K9me3 peptide (isothermal titration calorimetry) (trimethyl-lysine at 9); assay: ITC
T5 chain: ARTKQTARKSTGGKAY

[7] = molecular target: T6, Chp1 chromodomain (residues 15-75) for crystallization (S. pombe, UniProt Q10103 15-75); assay: crystal structure
T6 sequence (looked up): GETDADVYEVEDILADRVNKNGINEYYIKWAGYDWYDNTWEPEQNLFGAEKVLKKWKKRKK

Binder | Kd [1] [µM] | Kd [2] [µM] | Kd [3] [µM] | Kd [4] [µM] | Kd [5] [µM] | fold higher affinity than Swi6 [6] [fold] | binding result [7]
B1 | 14.7 | 0.6 ± 0.08 | 1.04 ± 0.1 | 3.34 ± 0.55 | 0.61 ± 0.12 | – | –
B2 | – | 2.86 ± 0.27 | 2.19 ± 0.13 | 10.3 ± 1.69 | 1.07 ± 0.03 | – | –
B3 | – | – | – | – | – | ≥ 5 | –
B4 | – | – | – | – | – | – | binds
